According to paper PMC7396675, “Functional and Structural Characterization of a Potent C1q Inhibitor Targeting the Classical Pathway of the Complement System” (Frontiers in Immunology, 2020):

How the values were obtained:
human C1q = human C1q (Homo sapiens, UniProt P02745;P02746;P02747); assay: cell-based or functional assay
[1] = biological target: T1, monomeric single-chain recombinant gC1q (Homo sapiens); assay: BLI; Octet Red96, 30°C, 1,000 rpm; C1qNb75 immobilized on amine reactive (AR2G) biosensors; kinetics buffer (PBS, 1 mg/mL BSA, 0.05% Tween 20); gC1q 0.3 to 10.9 nM, C1q 0.7 to 5.4 nM; gC1q data globally fitted with a 1:1 binding model; settings: both partners purified
T1 construct: globular head module of human C1q A-chain; numbers count on: the mature protein; globular head module of human C1q C-chain; globular head module of human C1q B-chain; also called single-chain form of gC1q; hC1qGH
T1 chain: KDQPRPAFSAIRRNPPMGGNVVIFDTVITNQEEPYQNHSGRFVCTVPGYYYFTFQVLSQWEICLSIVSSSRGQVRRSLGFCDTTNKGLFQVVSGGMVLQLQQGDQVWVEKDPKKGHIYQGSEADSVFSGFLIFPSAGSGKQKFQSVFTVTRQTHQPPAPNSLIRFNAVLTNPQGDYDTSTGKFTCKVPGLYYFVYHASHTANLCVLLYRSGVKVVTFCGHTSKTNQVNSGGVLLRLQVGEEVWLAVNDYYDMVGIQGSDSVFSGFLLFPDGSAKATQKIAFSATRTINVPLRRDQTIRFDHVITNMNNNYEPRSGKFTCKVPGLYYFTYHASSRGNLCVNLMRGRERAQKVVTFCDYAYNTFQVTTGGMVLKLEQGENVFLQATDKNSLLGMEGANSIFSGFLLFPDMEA

Sequence of human C1q (P02745 23-245, chain 1 of 2): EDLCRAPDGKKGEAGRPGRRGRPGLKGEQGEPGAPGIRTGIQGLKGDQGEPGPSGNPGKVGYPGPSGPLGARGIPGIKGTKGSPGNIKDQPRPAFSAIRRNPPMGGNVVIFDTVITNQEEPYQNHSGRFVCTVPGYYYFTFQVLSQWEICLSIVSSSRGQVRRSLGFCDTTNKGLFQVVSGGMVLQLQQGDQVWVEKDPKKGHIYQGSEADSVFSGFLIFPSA
Sequence of human C1q (P02747 29-245, chain 3 of 2): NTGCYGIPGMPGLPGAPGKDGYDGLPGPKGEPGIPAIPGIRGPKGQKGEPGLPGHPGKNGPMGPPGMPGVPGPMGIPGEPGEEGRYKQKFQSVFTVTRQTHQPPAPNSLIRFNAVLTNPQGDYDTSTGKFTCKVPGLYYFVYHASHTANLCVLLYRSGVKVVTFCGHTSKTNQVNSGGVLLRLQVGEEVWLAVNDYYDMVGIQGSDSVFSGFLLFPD

Kd [1]: 0.3 nM
t1/2 [1]: 1.14 h
B1: C1qNb75 (VHH)
VHH: QVQLVETGGGLVQAGGSLRLSCAASGRTFNNDVMAWFRQAPGTEREFVALITAGGGTHYADSVKGRFVISRDNDKNMAYLQMNSLKSEDTAIYYCGADENPPGWPSRWSSAYDYWGQGTQVTVSS
notes: nanobody chain of the crystal structure deposited here as PDB 6Z6V; also called C1q specific nanobody; source: E. coli LOBSTR cells (pET22b+), purified (Ni-NTA, MonoS, Superdex75)
IC50 of hemolysis of IgM-sensitized sheep RBCs in NHS with increasing concentrations of C1qNb75 (blocks C1q binding to IgM) (human C1q): 5.8 nM
